Among the data in the RNAGym collection of RNA variant scans (doi:10.7554/elife.90254) are self-cleavage values, retold here.

Sequences and labels used below:
B1: LINE1-full (parent)
chain: UACGUAGGUGGUUUUCCCCUGAUAGUGCUAAGGGGGCCUGGAAGUUUGGACUGGGCAGAGCUCAACACAGCGUGGCAAAGUGGCUGUGGCUAGACUGCCUCUCUGGAUUCCUCGUCACUCAGCAGGGCAUCUCUGAGAGAAAUGCC

This data set covers variants of B1. Put plainly: self-cleavage, relative activity (ratio to wild type); higher = more cleavage; in vitro, sequencing; the parent is a self-cleaving ribozyme.
For the variant UACGUAGGUGGUUUUCCCCUGAUAGUGCUAAGGGGGCCUGGAAGUUUGGACUGGGCAGAGCUCAACACAGCGAGGCAAAGUGGCUGUGGCUAGACUGCCUCUCUGGAUUCCUCGUCAUUCAGCAGGGCAUCUCUGAGAGAAAUGCC [U73A C118U], the self-cleavage turned out to be 1.25.

Turning to UACGUAGGUGGUUUUCCCCUGAUAGUGCUAAGGGGGCCUGGAAGUUUGGACUGGGCAGAGCUCAACACAGCGAGGCAAAGUGACUGUGGCUAGACUGCCUCUCUGGAUUCCUCGUCACUCAGCAGGGCAUCUCUGAGAGAAAUGCC [U73A G83A], the self-cleavage worked out at 0.53.

UACGUAGGUGGUUUUCCCCUGAUAGUGCUAAGGGGGCCUGGAAGUUUGGACUGGGCAGAGCUCAACACAGCGAGGCAAAGUGGCUGUGGCUAGACUGCCUCUCUAGAUUCCUCGUCACUCAGCAGGGCAUCUCUGAGAGAAAUGCC [U73A G105A]: the self-cleavage was 2.29.

With UACGUAGGUGGUUUUCCCCUGAUAGUGCUAAGGGGGCCUGGAAGUUUGGACUGGGCAGAGCUCAACACAGCGAGGCAAAGUGGCUGUGGCUAGACUGCCUCUCUGGAUUCCUUGUCACUCAGCAGGGCAUCUCUGAGAGAAAUGCC [U73A C113U], the self-cleavage was 1.41.

Take UACGUAGGUGGUUUUCCCCUGAUAGUGCUAAGGGGGCCUGGAAGUUUGGACUGGGCAGAGCUCAACACAGCGAGGCAAAGUGGCUGUGGCUAGACUGCCUUUCUGGAUUCCUCGUCACUCAGCAGGGCAUCUCUGAGAGAAAUGCC [U73A C101U]: the self-cleavage came to 2.61.

UACGUAGGUGGUUUUCCCCUGAUAGUGCUAAGGGGGCCUGGAAGUUUGGACUGGGCAGAGCUCAACACAGCGAGGCAAAGUGGCUGAGGCUAGACUGCCUCUCUGGAUUCCUCGUCACUCAGCAGGGCAUCUCUGAGAGAAAUGCC [U73A U87A]: the self-cleavage worked out at 0.07.

In the case of UACGUAGGUGGUUUUCCCCUGAUAGUGCUAAGGGGGCCUGGAAGUUUGGACUGGGCAGAGCUCAACACAGCGAGGCAAAGUGGCUGUGGCUAUACUGCCUCUCUGGAUUCCUCGUCACUCAGCAGGGCAUCUCUGAGAGAAAUGCC [U73A G93U], the self-cleavage is 0.03.

For UACGUAGGUGGUUUUCCCCUGAUAGUGCUAAGGGGGCCUGGAAGUUUGGACUGGGCAGAGCUCAACACAGCGAGGCAAAGUGGCUGUGGCUAGACUGCCUCUCUGGAUUCCUCGUCACUCAGCAGGGCAUCUCUGAGAGAAAUACC [U73A G144A], the self-cleavage was found to be 1.4.

UACGUAGGUGGUUUUCCCCUGAUAGUGCUAAGGGGGCCUGGAAGUUUGGACUGGGCAGAGCUCAACACAGCGAGGCAAAGUGGUUGUGGCUAGACUGCCUCUCUGGAUUCCUCGUCACUCAGCAGGGCAUCUCUGAGAGAAAUGCC [U73A C84U]: the self-cleavage stood at 0.16.

As for UACGUAGGUGGUUUUCCCCUGAUAGUGCUAAGGGGGCCUGGAAGUUUGGACUGGGCAGAGCUCAACACAGCGAGGCAAAGUGGCUGUGGCUAGACUGCCUCUCUGGAUUCCUCGUCACUCAGCAAGGCAUCUCUGAGAGAAAUGCC [U73A G125A], the self-cleavage was found to be 1.92.

In the case of UACGUAGGUGGUUUUCCCCUGAUAGUGCUAAGGGGGCCUGGAAGUUUGGACUGGGCAGAGCUCAACACAGCGAGGCAAAGUGGCUGUGGCUAGAGUGCCUCUCUGGAUUCCUCGUCACUCAGCAGGGCAUCUCUGAGAGAAAUGCC [U73A C95G], the self-cleavage worked out at 0.06.

UACGUAGGUGGUUUUCCCCUGAUAGUGCUAAGGGGGCCUGGAAGUUUGGACUGGGCAGAGCUCAACACAGCGAGGCAAAGUGGCUGUGGCUAGACUGCCUCUCUGGAUUCCUCGUCACUUAGCAGGGCAUCUCUGAGAGAAAUGCC [U73A C120U]: the self-cleavage is 1.79.

For UACGUAGGUGGUUUUCCCCUGAUAGUGCUAAGGGGGCCUGGAAGUUUGGACUGGGCAGAGCUCAACACAGCGAGGCAAAGUGGCUGUGGCUAGACUGCCUCUCUGGAUUCCUCGUCACUCAGCAGGACAUCUCUGAGAGAAAUGCC [U73A G127A], the self-cleavage was 1.58.

Regarding UACGUAGGUGGUUUUCCCCUGAUAGUGCUAAGGGGGCCUGGAAGUUUGGACUGGGCAGAGCUCAACACAGCGAGGCAAAGUGGCUGUGGCCAGACUGCCUCUCUGGAUUCCUCGUCACUCAGCAGGGCAUCUCUGAGAGAAAUGCC [U73A U91C], the self-cleavage is 0.19.

As to UACGUAGGUGGUUUUCCCCUGAUAGUGCUAAGGGGGCCUGGAAGUUUGGACUGGGCAGAGCUCAACACAGCGAGGCAAAGUGGCUGUGGCUAGACUGCCUCUCUGGAUUCCUCGUCACUCAGCAGGGCAUCUCUGAGAGAAGUGCC [U73A A142G], the self-cleavage worked out at 1.57.

With UACGUAGGUGGUUUUCCCCUGAUAGUGCUAAGGGGGCCUGGAAGUUUGGACUGGGCAGAGCUCAACACAGCGAGGCAAAGUGGCUGUGGCUAGACUGCCUCUCUGGAUUCCUCGUCACUCAGCAGGGCAUCUCUGAGAGAAUUGCC [U73A A142U], the self-cleavage came to 1.41.

Turning to UACGUAGGUGGUUUUCCCCUGAUAGUGCUAAGGGGGCCUGGAAGUUUGGACUGGGCAGAGCUCAACACAGCGAGGCAAAGUGGCUGUGGCUAGACUGCCUCUCUGGAUUCUUCGUCACUCAGCAGGGCAUCUCUGAGAGAAAUGCC [U73A C111U], the self-cleavage was 1.54.

In the case of UACGUAGGUGGUUUUCCCCUGAUAGUGCUAAGGGGGCCUGGAAGUUUGGACUGGGCAGAGCUCAACACAGCGAGGCAAAGUGGCUGUGGCUAGACUACCUCUCUGGAUUCCUCGUCACUCAGCAGGGCAUCUCUGAGAGAAAUGCC [U73A G97A], the self-cleavage stood at 0.11.

As to UACGUAGGUGGUUUUCCCCUGAUAGUGCUAAGGGGGCCUGGAAGUUUGGACUGGGCAGAGCUCAACACAGCGAGGCAAAGUGGCUGUGGCUAGACUGCCUCUCUGGAUUCCUCGUCACUCAGCAGGGCAUCUCUGAAAGAAAUGCC [U73A G137A], the self-cleavage was found to be 1.7.

For the variant UACGUAGGUGGUUUUCCCCUGAUAGUGCUAAGGGGGCCUGGAAGUUUGGACUGGGCAGAGCUCAACACAGCGAGGCAAAGUGGCUGUGGCUAGACUGCAUCUCUGGAUUCCUCGUCACUCAGCAGGGCAUCUCUGAGAGAAAUGCC [U73A C99A], the self-cleavage is 0.92.
